# Reference: patent publication US9120851B2, “Human antibodies to human angiopoietin-like protein 4” (Regeneron Pharmaceuticals, Inc., priority 2009, dated 2015)
# Test system: C57BL/6 mice given hANGPTL4-mFc
# Format: in vivo
# Conditions: antibody 5 mg/kg s.c.; 24 h later hANGPTL4-mFc 25 μg/mouse i.v.; bled 30 min after; mean±SEM
# Experimental: In another set of experiments, selected anti-hANGPTL4 antibodies were tested for their ability to inhibit hANGPTL4-induced increase of triglyceride levels. Measurements of total cholesterol, LDL, NEFA-C and HDL were also made. Briefly, C57BL/6 mice were put into groups of five mice each for each antibody tested. Antibodies were administered at 5 mg/kg dose by subcutaneous injection. Control group I, i.e., mice that received neither anti-hANGPTL4 antibodies nor hANGPTL4, were administered with PBS. Twenty-four hours post-injection of antibody, hANGPTL4-mFc (SEQ ID NO:480) was administered (i.v.) at a dose of 25 μg/mouse to each antibody group. Mice were bled at 30 min after hANGPTL4-mFc injection and lipid levels were determined by ADVIA® 1650 Chemistry System (Siemens). Averages were calculated for each of the measurements of triglycerides, total cholesterol (Total-C), LDL, NEFA-C and HDL for each antibody or control group. Levels of circulating anti-hANGPTL4 antibodies (Serum Ab) were also determined using a standard ELISA assay. Briefly, plates were coated with a goat anti-human Fc antibody (Sigma-Aldrich) to capture Serum Ab. Serum was then added to the plates and captured anti-hANGPTL4 antibodies were detected by chemiluminescence using a horseradish peroxidase (HRP) conjugated goat anti-human IgG antibody (Sigma-Aldrich). Control I: Mice that received PBS, but neither anti-hANGPTL4 antibodies nor hANGPTL4-mFc. Control II: Mice that received a human antibody specific for CD20 (i.e., the mAb having the sequence of 2F2 clone disclosed in US 2008/0260641) and hANGPTL4-mFc.
Molecule,HDL [mg/dL],LDL [mg/dL],NEFA-C [mg/dL],Total-C [mg/dL],Triglycerides [mg/dL]
"H1H653P: anti-hANGPTL4 antibody, HCVR/LCVR SEQ ID NOs 306/308 (antibody, V domains shown) VH: QVQLVESGGGVVQPGRSLRLSCVASGFTFSSYGMHWVRQAPGKGLEWMAVIWYDGSNKYFADSVKDRFTISRDNSKNTLYLQMNTLRPDDTAVYYCVKADAPLLIYGVDVWGQGTTVTVS VL: DIQMTQSPSSLSASVGDRVTITCRASQGIRNDLGWYQEKPGKAPKRLIYFASSLQSGVPSRFSGSGSGTEFTLTISSLQPEDFATYYCLQHNSYPYTFGQGTKLEIK",40.10 ± 2.72,3.84 ± 0.32,1.04 ± 0.1,74.20 ± 4.49,88.00 ± 13.52
"H1H257P: anti-hANGPTL4 antibody, HCVR/LCVR SEQ ID NOs 18/20 (antibody, V domains shown) VH: EVQLVESGGGLVQPGGSLRLSCAASGFTFSSYDMHWVRQVAGKGLEWVSAIGTAGDTYYPVSVKGRFTISRENAKNSLYLHMNSLRAGDTAVYFCARGDSRNYYVGDYFDYWGQGTLVTVSS VL: DIQMTQSPSTLSASVGDRVTITCRASQSISRWLAWYQQKPGKAPKVLIYQASNLESGVPSRFSGSGSGTEFTLTISSLQPDDFATYYCQQYDSYSRAFGRGTKVEIK",41.38 ± 3.24,5.30 ± 0.36,0.97 ± 0.03,84.40 ± 3.53,115.80 ± 6.43
"H1H638P: anti-hANGPTL4 antibody, HCVR/LCVR SEQ ID NOs 258/260 (antibody, V domains shown) VH: EVQLVESGGGLVQPGGSLRLSCVASGFTFSSYDMHWVRQVAGKGLEWVAAIGTAGDTYYPVSVKGRFTISRENAKNSLSLHMNSLRAGDTAVYYCARGDSRNYYVGDYFDYWGQGTLVTVSS VL: DIQMTQSPSTLSASVGDRVTITCRASQSISRWLAWYQQKPGKAPKVLIYKASSLKSGVPSRFSGSGSGTEFTLTISSLQSDDFATYYCQQYNSYSRTFGQGTKVEIK",39.54 ± 1.65,4.14 ± 0.18,1.06 ± 0.05,73.80 ± 2.78,102.80 ± 10.75
"H1H283P: anti-hANGPTL4 antibody, HCVR/LCVR SEQ ID NOs 66/68 (antibody, V domains shown) VH: EVQLVESGGGLVQPGGSLRLSCAASGFTFSSYDMHWVRQVAGKGLEWVSAIGTAGDTYYPVSVKGRFTISRENAKNSLYLHMNSLRAGDTAVYFCARGDSRNYYVGDYFDYWGQGTLVTVSS VL: DIQMTQSPSTLSASVGDRVTITCRASQSISRWLAWYQQKPGKAPKVLIYKASNLESGVPSRFSGSGSGTEFTLTISSLQPDDFATYYCQQYNSYSRTFGQGTKVEIK",40.30 ± 0.72,4.62 ± 0.39,1.13 ± 0.05,75.80 ± 1.53,113.60 ± 8.74
"H1H285P: anti-hANGPTL4 antibody, HCVR/LCVR SEQ ID NOs 114/116 (antibody, V domains shown) VH: EVQLVESGGGLVQPGGSLRLSCAASGFTFSRYDMHWVRQVTGKGLEWVSGIGTAGDTYYPGSVKGRFTISRENDKNSLYLQMNSLRVGDTAVYYCARGDSKNYYVGDYFDYWGQGTLVTVSS VL: DIQMTQSPSTLSASVGDRVTFTCRASHSIGNWLAWYQQKPGKAPKVLIYEASSLEDGVPSRFSGSGSGTEFTLTISSLQPDDFATYYCQQYDTYFRTFGQGTKVEIK",42.20 ± 0.91,3.72 ± 0.44,0.97 ± 0.06,76.40 ± 1.75,91.40 ± 11.99
"H1H292P: anti-hANGPTL4 antibody, HCVR/LCVR SEQ ID NOs 162/164 (antibody, V domains shown) VH: EVQLVESGGGLVQPGGSLRLSCVASGFTFSSYDMHWVRQLPGKGLEWVSAIGVAGDTYYPASVKGRFTISRENAKNSLYLQMNSLRAGDTAVYYCARGDSGNYYDGDYFDFWGQGTLVTVSS VL: DIQMTQSPSTLSASVGDRVTITCRASQSINRWLAWYQQKPGKAPKVLIYKASNLESGVPSRFSGSGSGTEFTLTISSLQPDDFATYYCQQYDSYFRTFGQGTKVEIK",39.44 ± 1.68,3.96 ± 0.15,1.06 ± 0.06,74.40 ± 2.11,85.80 ± 7.00
"H1H291P: anti-hANGPTL4 antibody, HCVR/LCVR SEQ ID NOs 138/140 (antibody, V domains shown) VH: EVQLVESGGGLVQPGGSLRLSCAASGFTFSTYDMHWVRQGLGKGLEWVSAIGSAGDTYYPGSVKGRFTISRDNAKSSLFLHMNSLRAGDTALYYCARGDSRNYFVGDYFDYWGQGTLVTVSS VL: DIQMTQSPSTLSASIGDRVTITCRASQSISSWLAWYQQKPGKAPKVLIYKASSLEAGVPSRFSGSGSGTEFTLTISSLQPDDFASYYCQQYSSYSRTFGQGTKVEIK",38.24 ± 2.14,3.84 ± 0.12,1.11 ± 0.04,71.20 ± 3.26,111.00 ± 7.51
"H1H236N2: anti-hANGPTL4 antibody, HCVR/LCVR SEQ ID NOs 458/394 (antibody, V domains shown) VH: EVQLVESGGGLVQPGRSLRLSCAASGFTFDDYAMHWVRQAPGKGLEWVSGISWNSGSIVYADSVKGRFTISRDNAKNSLYLQMNSLISEDTALYYCAKDESSSSGNWFDPWGQGTLVTVSS VL: EVVMTQSPATLSVSPGERATLSCRASQSVSSNLAWYQQKPGQAPRLLIYGASTRATGIPARFSGSGSGTEFTLTISSLQSEDFAVYYCQEYNNWITFGQGTRLEIK",33.78 ± 1.13,4.26 ± 0.25,1.11 ± 0.18,72.40 ± 1.81,151.80 ± 9.26
"H1H624P: anti-hANGPTL4 antibody, HCVR/LCVR SEQ ID NOs 210/212 (antibody, V domains shown) VH: EVQLVESGGGLVQPGGSLRLSCAASEFIFSSYAMNWVRQAPGKGLEWVSVISGSGDSKYYADSVKGRFTISRDNSKNTLYLQMNSLRVEDTAVYYCAKDGKDRYGFYYNFYGMDVWGQGTTVTVS VL: DIQMTQSPSFLSASVGDRVTITCWASQGISSYLAWYQQKPGKAPKILIYAASTLQSGVPSRFSASGSGTEFTLTISSLQPEDFATYHCQQLNSYPFTFGPGTKVDIK",35.40 ± 2.68,4.36 ± 0.92,0.86 ± 0.07,72.80 ± 5.49,81.20 ± 9.26
"H1H295P: anti-hANGPTL4 antibody, HCVR/LCVR SEQ ID NOs 186/188 (antibody, V domains shown) VH: EVQLVESGGGLVQPGGSLRLSCAASGFTFSTYDMHWVRQAPGKGLEWVSAIGSAGDTYYPGSVKGRFTISRDNAKSSLFLQMNSLRAGDTALYYCARGDSRNYFVGDYFDYWGQGTLVTVSS VL: DIQMTQSPSTLSASVGDRVTITCRASQSIGTWLAWYQQKPGKAPKILIYKASSLEGGVPSRFSGSGSGTEFTLTISSLQPDDFANYYCQQYNSFYRTFGQGTKVEIK",39.70 ± 3.13,4.04 ± 0.40,1.12 ± 0.04,74.60 ± 4.82,104.80 ± 9.44
